Test [1] has as its target T1, GST-AIP (human, UniProt O00170 1-330).
T1 sequence (looked up): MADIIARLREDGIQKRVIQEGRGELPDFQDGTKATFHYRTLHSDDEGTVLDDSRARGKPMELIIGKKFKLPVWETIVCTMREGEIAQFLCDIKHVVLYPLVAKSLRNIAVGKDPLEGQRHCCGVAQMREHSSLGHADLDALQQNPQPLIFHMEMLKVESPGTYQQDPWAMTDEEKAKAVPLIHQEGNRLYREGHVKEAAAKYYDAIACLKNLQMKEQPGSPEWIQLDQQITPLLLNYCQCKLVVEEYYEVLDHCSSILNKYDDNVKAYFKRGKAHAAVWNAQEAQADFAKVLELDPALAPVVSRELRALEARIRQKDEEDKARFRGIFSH
Briefly: pull-down.

Test [2] deals with T1, GST-AIP. The experiment in a line: pull-down. This is another data set of the same source.

Read-outs that look alike come from different tables or passages of the source.

B1: Tom20C[131–145] peptide (peptide)
peptide: QRIVSAQSLAEDDVE
Consider B1, for which, in the test with GST-AIP [1], the binding result is reported as “binds”.

B2: MBP-cT20 (domain or fragment, human, UniProt Q15388 25-145, looked up)
chain: DRKRRSDPNFKNRLRERRKKQKLAKERAGLSKLPDLKDAEAVQKFFLEEIQLGEELLAQGEYEKGVDHLTNAIAVCGQPQQLLQVLQQTLPPPVFQMLLTKLPTISQRIVSAQSLAEDDVE
Take B2: in the test with GST-AIP [2], the binding result is “binds”.

B3: synthetic presequence peptide of human pOTC (peptide)
peptide: MLFNLRILLNNAAFRNGHNFMVRNFRCGQPLQ
Consider B3, for which the binding result with GST-AIP [1] is reported as “binds”.
